According to publication PMC6224509 (2018):

How the values were obtained:
Experiment in all cases: SPR; 37°C
[1] = target: human 4-1BB residues 24–186, wild type, His–Avi (human, UniProt Q07011 24-186)
[2] = target: human 4-1BB residues 24–186 I132R, His–Avi (human, UniProt Q07011 24-186, I132R)
[3] = target: human 4-1BB residues 24–186 M101R, His–Avi (human, UniProt Q07011 24-186, M101R)
human 4-1BB residues 24–186 M101R, His–Avi, sequence (Q07011 24-186 M101R): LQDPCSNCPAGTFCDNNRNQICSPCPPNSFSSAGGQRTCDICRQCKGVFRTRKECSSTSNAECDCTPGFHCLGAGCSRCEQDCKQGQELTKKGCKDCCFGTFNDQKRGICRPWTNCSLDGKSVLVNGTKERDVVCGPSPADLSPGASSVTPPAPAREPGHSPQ

human 4-1BB residues 24–186, wild type, His–Avi, sequence (Q07011 24-186): as the sequence (Q07011 24-186 M101R) above, with R78M counted along it
human 4-1BB residues 24–186 I132R, His–Avi, sequence (Q07011 24-186 I132R): as the sequence (Q07011 24-186 M101R) above, with R78M, I109R counted along it

koff [1]: 0.014 s⁻¹
koff [2]: 0.012 s⁻¹
koff [3]: 0.0095 s⁻¹
B1: urelumab (fully human IgG4 mAb) (antibody, V domains shown)
VH: QVQLQQWGAGLLKPSETLSLTCAVYGGSFSGYYWSWIRQSPEKGLEWIGEINHGGYVTYNPSLESRVTISVDTSKNQFSLKLSSVTAADTAVYYCARDYGPGNYDWYFDLWGRGTLVTVSS
VL: EIVLTQSPATLSLSPGERATLSCRASQSVSSYLAWYQQKPGQAPRLLIYDASNRATGIPARFSGSGSGTDFTLTISSLEPEDFAVYYCQQRSNWPPALTFGGGTKVEIK
